Where a chain is given by its changes, count along the chain named. Like-named read-outs stand apart in the source and are kept apart here.
B1: 36F2: anti-FolR1 clone, generic multi-framework library (Vk_3_20/VH_1_46); Fab and IgG (antibody, V domains shown)
VH: QVQLVQSGAEVKKPGASVKVSCKASGYTFTSYYMHWVRQAPGQGLEWMGIINPSGGSTSYAQKFQGRVTMTHDTSTSTVYMELSSLRSEDTAVYYCARSFFTGFHLDYWGQGTLVTVSS
VL: EIVLTQSPGTLSLSPGERATLSCRASQSVSSSYLAWYQQKPGQAPRLLIYGASSRATGIPDRFSGSGSGTDFTLTISRLEPEDFAVYYCQQYTNEHYYTFGQGTKVEIK
B2: 5D9: anti-FolR1 clone, generic multi-framework library (Vk3_20/VH1_46); Fab and IgG (antibody, V domains shown)
VH: QVQLVQSGAEVKKPGASVKVSCKASGYTFTSYYMHWVRQAPGQGLEWMGIINPSGGSTSYAQKFQGRVTMTRDTSTSTVYMELSSLRSEDTAVYYCARSYIDMDYWGQGTLVTVSS
VL: EIVLTQSPGTLSLSPGERATLSCRASQSVSSSYLAWYQQKPGQAPRLLIYGASSRATGIPDRFSGSGSGTDFTLTISRLEPEDFAVYYCQQDNWSPTFGQGTKVEIK
B3: 6B6: anti-FolR1 clone, generic multi-framework library (Vk3_20/VH1_46); Fab and IgG (antibody, V domains shown)
VH: B2 VH with I101V
VL: B2 VL with N93I
B4: 11F8: anti-FolR1 clone, generic multi-framework library (Vk_1_5/VH_1_69); Fab and IgG (antibody, V domains shown)
VH: QVQLVQSGAEVKKPGSSVKVSCKASGGTFSSYAISWVRQAPGQGLEWMGGIIPIFGTANYAQKFQGRVTITADKSTSTAYMELSSLRSEDTAVYYCARAVFYRAWYSFDYWGQGTTVTVSS
VL: DIQMTQSPSTLSASVGDRVTITCRASQSISSWLAWYQQKPGKAPKLLIYDASSLESGVPSRFSGSGSGTEFTLTISSLQPDDFATYYCQQYTSPPPTFGQGTKVEIK

Columns and labels:
[1] = tested on: cynomolgus FolR1; details: IgG injected for 60 seconds at 500 nM
Experimental: (§1) Binding of FolR1 binders as IgG or in the T-cell bispecific format to different recombinant folate receptors (human FolR1, 2 and 3, murine FolR1 and cynomolgus FolR1; all as Fc fusions) was assessed by surface plasmon resonance (SPR). All SPR experiments were performed on a Biacore T200 at 25° C. with HBS-EP as running buffer (0.01 M HEPES pH 7.4, 0.15 M NaCl, 3 mM EDTA, 0.005% Surfactant P20, Biacore, Freiburg/Germany).
(§2) First the anti-FolR1 IgGs were analyzed by single injections (Table 1) to characterize their crossreactivity (to human, murine and cyno FolR1) and specificity (to human FolR1, human FolR2, human FolR3). Recombinant biotinylated monomeric Fc fusions of human, cynomolgus and murine Folate Receptor 1 (FolR1-Fc) or human Folate Receptor 2 and 3 (FolR2-Fc, FolR3-Fc) were directly coupled on a SA chip using the standard coupling instruction (Biacore, Freiburg/Germany). The immobilization level was about 300-400 RU. The IgGs were injected for 60 seconds at a concentration of 500 nM.

[2] = biological target: T1, human FolR1 (Homo sapiens, UniProt P15328); details: IgG injected for 60 seconds at 500 nM
Experimental: as §1, §2

[3] = biological target: T2, human FolR2 (Homo sapiens, UniProt P14207); details: IgG injected for 60 seconds at 500 nM
Experimental: as §1, §2

[4] = biological target: T3, human FolR3 (Homo sapiens, UniProt P41439); details: IgG injected for 60 seconds at 500 nM
Experimental: as §1, §2

[5] = biological target: murine FolR1 (Mus musculus, UniProt P35846); details: IgG injected for 60 seconds at 500 nM
Experimental: as §1, §2

[6] = biological target: T4, human Folate Receptor 1 (FolR1-Fc) (Homo sapiens, UniProt P15328); test: SPR avidity to Folate Receptor 1 (bivalent binding)
T4 construct: the extracellular domain of the antigen linked to the hinge region of Fc-knob; made in house; host or cells: HEK293 EBNA
Description: The immobilization level was about 300-400 RU. […] The dissociation was monitored for 600 seconds.

[7] = tested on: cynomolgus Folate Receptor 1 (FolR1-Fc); details: bivalent binding (avidity), ligand cyFolR1
Experimental: as §1
(§3) The avidity of the interaction between the anti-FolR1 IgGs or T cell bispecifics and the recombinant folate receptors was determined as described below (Table 9). Recombinant biotinylated monomeric Fc fusions of human, cynomolgus and murine Folate Receptor 1 (FolR1-Fc) were directly coupled on a SA chip using the standard coupling instruction (Biacore, Freiburg/Germany). The immobilization level was about 300-400 RU. The anti-FolR1 IgGs or T cell bispecifics were passed at a concentration range from 2.1 to 500 nM with a flow of 30 μL/minutes through the flow cells over 180 seconds. The dissociation was monitored for 600 seconds. […] The binding curves resulting from the bivalent binding of the IgGs or T cell bispecifics were approximated to a 1:1 Langmuir binding and fitted with that model (which is not correct, but gives an idea of the avidity). The apparent avidity constants for the interactions were derived from the rate constants of the fitting using the Bia Evaluation software (GE Healthcare).

[8] = biological target: murine Folate Receptor 1 (FolR1-Fc) (Mus musculus, UniProt P35846); details: bivalent binding (avidity), ligand muFolR1; 19H3 IgG with folate 2.3 μM in running buffer
Experimental: as §1, §3

[9] = tested on: huFolR1-Fc; test: SPR epitope binning; assay type: binding, human
Experimental: 500 nM huFolR1-Fc was then captured for 60 s, followed by 500 nM of the different binders for 30 s. The surface was regenerated with two injections of 10 mM glycine pH 2 for 30 s each.

[10] = tested on: HEK cells transiently transfected with human FolR1 or human FolR2; test: Flow cytometry specificity on transfected HEK cells; assay type: binding; details: IgG
Experimental: FIGS. 3A-B depict graphs summarizing specificity of FolR1 binders for FolR1. Binding of FolR1 IgGs to HEK cells transiently transfected with either FolR1 or FolR2 was analyzed by flow cytometry to identify clones which bind specifically to FolR1 and not to FolR2.
(§4) New FolR1 hinders were generated via Phage Display using either a Fab library or a common light chain library using the CD3 light chain. The identified binders were converted into a human IgG1 format and binding to FolR1 high expressing HeLa cells was addressed. As reference molecule the human FolR1 binder Mov19 was included. […] In a next step the selected clones were tested for specificity to human FolR1 by excluding binding to the closely related human FolR2. HEK cells were transiently transfected with either human FolR1 or human FolR2 to address specificity. […] Therefore these clones were excluded from further characterization. In parallel cross-reactivity of the FolR1 clones to cyno FolR1 was addressed by performing binding studies to HEK cells transiently transfected with cyno FolR1. […] Subsequently three human FolR1 specific cyno cross-reactive binders were converted into TCB format and tested for induction of T cell killing and T cell activation. […] As reference molecule Mov19 FolR1 TCB was included in all studies. These FoLR1 TCBs were then used to compare induction of internalization after binding to FolR1 on HeLa cells.

[11] = tested on: HEK cells transiently transfected with cyno FolR1; test: Flow cytometry cross-reactivity on transfected HEK cells; assay type: binding, cynomolgus; details: IgG
Description: FIGS. 4A-B depict graphs summarizing cross-reactivity of FolR1 binders to cyFoLR1. Cross-reactivity of the FolR1 antibodies to cyno FolR1 was addressed on HEK cells transiently transfected with cyFolR1 by flow cytometry.
as §4

[12] = biological target: T2, human FolR2; test: SPR affinity of selected Fab clones (ProteOn XPR36); assay type: binding; set-up: the extracellular domain of the antigen linked to the hinge region of Fc-knob; made in house; host or cells: HEK293 EBNA; details: Fab-format, generic multi-framework sub-libraries, 25° C.
[13] = biological target: T3, human FolR3; test: as above; assay type: binding; set-up: the extracellular domain of the antigen linked to the hinge region of Fc-knob; made in house; host or cells: HEK293 EBNA; details: Fab-format, generic multi-framework sub-libraries, 25° C.
[14] = biological target: cynomolgus FolR1; details: read-out: KD cyFolR1; Fab-format, generic multi-framework sub-libraries, 25° C.
Experimental: (§5) Immobilization of antigens (ligand): Recombinant antigens were diluted with PBST (10 mM phosphate, 150 mM sodium chloride pH 7.4, 0.005% Tween 20) to […] injected at 30 μl/minute in vertical orientation. Injection of analytes: For ‘one-shot kinetics’ measurements, injection direction was changed to horizontal orientation, two-fold dilution series of purified Fab (varying concentration ranges) were injected simultaneously along separate channels 1-5, with association times of 200 s, and dissociation times of 600 s. Buffer (PBST) was injected along the sixth channel to provide an “in-line” blank for referencing. Association rate constants (kon) and dissociation rate constants (koff) were calculated using a simple one-to-one Langmuir binding model in ProteOn Manager v3.1 software by simultaneously fitting the association and dissociation sensorgrams. The equilibrium dissociation constant (KD) was calculated as the ratio koff/kon.
(§6) Immobilization of antigens (ligand): Recombinant antigens were diluted with PBST (10 mM phosphate, 150 mM sodium chloride pH 7.4, 0.005% Tween 20) to 10 μg/ml, then injected at 30 μl/minute in vertical orientation. Injection of analytes: For ‘one-shot kinetics’ measurements, injection direction was changed to horizontal orientation, two-fold dilution series of purified Fab (varying concentration ranges) were injected simultaneously along separate channels 1-5, with association times of 150 or 200 s, and dissociation times of 200 or 600 s, respectively. Buffer (PBST) was injected along the sixth channel to provide an “in-line” blank for referencing. Association rate constants (kon) and dissociation rate constants (koff) were calculated using a simple one-to-one Langmuir binding model in ProteOn Manager v3.1 software by simultaneously fitting the association and dissociation sensorgrams. The equilibrium dissociation constant (KD) was calculated as the ratio koff/kon.

[15] = biological target: T1, human FolR1; details: read-out: KD huFolR1; Fab-format, generic multi-framework sub-libraries, 25° C.
Experimental: as §5, §6

[16] = biological target: murine FolR1 (Mus musculus, UniProt P35846, C103A); details: Fab-format, generic multi-framework sub-libraries, 25° C.
Experimental: as §5, §6

[17] = bivalent binding (avidity), ligand huFolR1

Row | Molecule | Binding to cyFolR1 [1] | Binding to huFolR1 [2] | Binding to huFolR2 [3] | Binding to huFolR3 [4] | Binding to muFolR1 [5] | KD huFolR2 [12] | KD huFolR3 [13] | Kd [14] [nM] | Kd [15] [nM] | KD muFolR1 [16] | other results
1 | B1 | + | + | − | − | + | no binding | no binding |  |  |  | dissociation from huFolR1 (in words) [6]: dissociated rapidly from huFolR1; ka [6, 17]: 2.62e+06 M⁻¹ s⁻¹; kd [6, 17]: 0.0151 s⁻¹; ka [7]: 3.02e+06 M⁻¹ s⁻¹; kd [7]: 0.016 s⁻¹; ka [8]: 370000 M⁻¹ s⁻¹; kd [8]: 0.000603 s⁻¹; epitope characterization on human FolR1 (in words) [9]: binds to a different epitope than Mov19 and Farletuzumab; epitope characterization on human FolR1 (in words) ([9]; listed as 36F2 IgG): Measure not possible, huFolR1 dissociates too rapidly; specificity for human FolR1 versus human FolR2 on transfected HEK cells [10]: specifically to human FolR1 and not to human FolR2; binding to cyno FolR1 on transfected HEK cells [11]: bind comparably well human and cyno FoLR1
2 | B2 | + | + | + | + | − | no binding | no binding | 5.9 | 8.6 | no binding | 
3 | B3 | + | + | + | + | − | no binding | no binding | 9.4 | 14.5 | no binding | 
4 | B4 | + | + | + | + | + | no binding | no binding | 794 | 632 |  | 

From patent US10781262B2, “Combination therapy of T cell activating bispecific antigen binding molecules and PD-1 axis binding antagonists” (Hoffmann-La Roche Inc., priority 2014, dated 2020)
